Test results: the supplement of paper PMC7125110
± gives the standard error. For some of these results: Variants at the floor of the assay were thinned out.

B1: glmS ribozyme (parent)
chain: AUAAAAGCGCCAGAACUACAGAAAUGUAGUUGACGAGGAGGAGGUUUAUCGAAUUUUCGGCGGAUGCCUCCAAA

Key:
Conditions in all cases: with glucosamine-6-phosphate
glucosamine-6-phosphate [1] = variants of: B1; test: kcat; higher = faster cleavage; RNA array
Outline: (§1)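 A hybridised Cy3 probe tracked barcoded ribozyme variants, transcribed in situ by E. coli RNA polymerase on sequenced MiSeq chips, at 37 °C. The variants received 40 μM to 10 mM glucosamine-6-phosphate in HEPES/KCl/Mg(OAc)2 buffer. kobs came from decay fits and kcat and KM from weighted Michaelis–Menten fits.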

glucosamine-6-phosphate [2] = variants of: B1; test: self-cleavage kobs at 640 uM GlcN6P; higher = faster cleavage; RNA array
Outline: as §1

glucosamine-6-phosphate [3] = variants of: B1; test: self-cleavage kobs at 2500 uM GlcN6P; higher = faster cleavage; RNA array
Outline: as §1

glucosamine-6-phosphate [4] = variants of: B1; test: self-cleavage kobs at 10000 uM GlcN6P; higher = faster cleavage; RNA array
Outline: as §1

glucosamine-6-phosphate [5] = variants of: B1; test: KM; higher = weaker cofactor use; RNA array
Outline: as §1

glucosamine-6-phosphate [6] = variants of: B1; test: self-cleavage kobs at 160 uM GlcN6P; higher = faster cleavage; RNA array
Outline: as §1

glucosamine-6-phosphate [7] = variants of: B1; test: self-cleavage kobs at 40 uM GlcN6P; higher = faster cleavage; RNA array
Outline: as §1

| Variant | kcat (glucosamine-6-phosphate [1]) | self-cleavage kobs at 640 uM GlcN6P (glucosamine-6-phosphate [2]) | self-cleavage kobs at 2500 uM GlcN6P (glucosamine-6-phosphate [3]) | self-cleavage kobs at 10000 uM GlcN6P (glucosamine-6-phosphate [4]) | KM (glucosamine-6-phosphate [5]) | self-cleavage kobs at 160 uM GlcN6P (glucosamine-6-phosphate [6]) | self-cleavage kobs at 40 uM GlcN6P (glucosamine-6-phosphate [7]) |
| --- | --- | --- | --- | --- | --- | --- | --- |
| U31A A48U | 9.44e-05 ± 4.1e-05 s⁻¹ | 4.25e-05 ± 1.5e-05 s⁻¹ | 5.43e-05 ± 1.6e-05 s⁻¹ | 0.000133 ± 4.7e-05 s⁻¹ |  |  |  |
| U57A C58A | 4.9e-05 ± 5.6e-06 s⁻¹ |  | 4.44e-05 ± 1.1e-05 s⁻¹ | 4.41e-05 ± 9.8e-06 s⁻¹ |  |  |  |
| U55C C71G | 0.000144 ± 9.8e-06 s⁻¹ | 3.46e-05 ± 9.7e-06 s⁻¹ | 8.92e-05 ± 1.3e-05 s⁻¹ | 0.000118 ± 1.9e-05 s⁻¹ | 1810 ± 300 µM |  |  |
| A15U U57C | 8.55e-05 ± 5e-06 s⁻¹ |  | 2.97e-05 ± 8.8e-06 s⁻¹ | 5.82e-05 ± 8.1e-06 s⁻¹ | 4690 ± 680 µM | < 1e-05 s⁻¹ |  |
| A14G C67G C71U | 5.11e-05 ± 1.2e-05 s⁻¹ | 9.52e-05 ± 3.5e-05 s⁻¹ | 5.17e-05 ± 1.4e-05 s⁻¹ | 4.43e-05 ± 1.3e-05 s⁻¹ |  |  |  |
| C58U C71G | < 1e-05 s⁻¹ |  |  |  |  |  |  |
| A6G C16U | 0.000459 ± 3.2e-05 s⁻¹ | 6.74e-05 ± 1e-05 s⁻¹ | 0.000208 ± 2.7e-05 s⁻¹ | 0.000336 ± 3.2e-05 s⁻¹ | 3450 ± 450 µM | 2.44e-05 ± 1.1e-05 s⁻¹ |  |
| G59A C70A | 1.52e-05 ± 3.7e-06 s⁻¹ |  |  |  |  |  |  |
| G29U A64G | 0.00507 ± 0.0025 s⁻¹ | 0.000939 ± 0.0002 s⁻¹ | 0.00221 ± 0.00045 s⁻¹ | 0.00594 ± 0.00078 s⁻¹ |  | 0.000495 ± 0.00011 s⁻¹ | 0.000212 ± 3.2e-05 s⁻¹ |
| G40A A64C | 6.62e-05 ± 1.1e-05 s⁻¹ |  |  | 5.19e-05 ± 1.5e-05 s⁻¹ |  |  |  |
| G41C U46C | 3.31e-05 ± 3.8e-06 s⁻¹ |  |  | 2.65e-05 ± 9.7e-06 s⁻¹ | 2440 ± 1200 µM | < 1e-05 s⁻¹ | < 1e-05 s⁻¹ |
| A14C U69A | 0.000125 ± 1.5e-05 s⁻¹ | 9.86e-05 ± 1.9e-05 s⁻¹ | 0.000115 ± 1.8e-05 s⁻¹ | 0.00011 ± 1.8e-05 s⁻¹ | 380 ± 170 µM | 2.61e-05 ± 1.2e-05 s⁻¹ |  |
| C50U G60U C70U | 1.49e-05 ± 6e-06 s⁻¹ |  |  |  |  |  |  |
| C16G C61A | 1.02e-05 ± 1.1e-06 s⁻¹ |  |  |  |  |  |  |
| A52C C68U | 1.28e-05 ± 5.9e-07 s⁻¹ |  |  |  | 249 ± 86 µM |  | < 1e-05 s⁻¹ |
| U57C C67A | 3.95e-05 ± 1.7e-06 s⁻¹ | 3.33e-05 ± 1.5e-05 s⁻¹ | 3.6e-05 ± 1.1e-05 s⁻¹ | 3.97e-05 ± 1.2e-05 s⁻¹ | 157 ± 71 µM |  |  |
| C50U G66A | 0.000123 ± 5.1e-05 s⁻¹ |  |  | 4.11e-05 ± 9.9e-06 s⁻¹ |  |  |  |
| A14U A36C C50U | 1.43e-05 ± 5.6e-06 s⁻¹ |  |  |  |  |  |  |
| A14C C70G | 0.00014 ± 1.4e-05 s⁻¹ | 5.83e-05 ± 7.3e-06 s⁻¹ | 9.83e-05 ± 1.1e-05 s⁻¹ | 0.000134 ± 1.3e-05 s⁻¹ | 866 ± 250 µM | 3.24e-05 ± 1.3e-05 s⁻¹ |  |
| G51U C70G | 3.09e-05 ± 1.2e-05 s⁻¹ | 5.38e-05 ± 1.4e-05 s⁻¹ | 4.11e-05 ± 1e-05 s⁻¹ |  |  |  |  |
